Test results taken from paper PMC4990313 (ACS Catalysis, 2013).

Molecular target: the molecule itself
Test: crystal structure; sitting drop vapor diffusion at 20 °C, 100 mM KH2PO4/citrate pH 4.0-5.0, PEG 300 35-50%; holo, NADP(H)-soaked (binary) and NADP+ + HMCA-soaked (ternary) crystals; dimer interface analysed with PISA

B1: double bond reductase from Nicotiana tabacum (NtDBR) (enzyme, UniProt Q9SLN8 1-343, looked up)
chain: MAEEVSNKQVILKNYVTGYPKESDMEIKNVTIKLKVPEGSNDVVVKNLYLSCDPYMRSRMRKIEGSYVESFAPGSPITGYGVAKVLESGDPKFQKGDLVWGMTGWEEYSIITPTQTLFKIHDKDVPLSYYTGILGMPGMTAYAGFHEVCSPKKGETVFVSAASGAVGQLVGQFAKMLGCYVVGSAGSKEKVDLLKSKFGFDEAFNYKEEQDLSAALKRYFPDGIDIYFENVGGKMLDAVLVNMKLYGRIAVCGMISQYNLEQTEGVHNLFCLITKRIRMEGFLVFDYYHLYPKYLEMVIPQIKAGKVVYVEDVAHGLESAPTALVGLFSGRNIGKQVVMVSRE
  stoichiometry N: 2
